The values that follow are results of earlier work, collected in paper PMC10876095.

Data set [1] addresses tau (Homo sapiens) (UniProt P10636). Kind of data set: SPR.
The target is the same in data set [2].
For data set [3] the target is unchanged. Kind of data set: SPR. This is another data set of the same source.

Like-named read-outs stand apart in the source and are kept apart here.

Sequence of UniProt P10636 (P10636 2-758): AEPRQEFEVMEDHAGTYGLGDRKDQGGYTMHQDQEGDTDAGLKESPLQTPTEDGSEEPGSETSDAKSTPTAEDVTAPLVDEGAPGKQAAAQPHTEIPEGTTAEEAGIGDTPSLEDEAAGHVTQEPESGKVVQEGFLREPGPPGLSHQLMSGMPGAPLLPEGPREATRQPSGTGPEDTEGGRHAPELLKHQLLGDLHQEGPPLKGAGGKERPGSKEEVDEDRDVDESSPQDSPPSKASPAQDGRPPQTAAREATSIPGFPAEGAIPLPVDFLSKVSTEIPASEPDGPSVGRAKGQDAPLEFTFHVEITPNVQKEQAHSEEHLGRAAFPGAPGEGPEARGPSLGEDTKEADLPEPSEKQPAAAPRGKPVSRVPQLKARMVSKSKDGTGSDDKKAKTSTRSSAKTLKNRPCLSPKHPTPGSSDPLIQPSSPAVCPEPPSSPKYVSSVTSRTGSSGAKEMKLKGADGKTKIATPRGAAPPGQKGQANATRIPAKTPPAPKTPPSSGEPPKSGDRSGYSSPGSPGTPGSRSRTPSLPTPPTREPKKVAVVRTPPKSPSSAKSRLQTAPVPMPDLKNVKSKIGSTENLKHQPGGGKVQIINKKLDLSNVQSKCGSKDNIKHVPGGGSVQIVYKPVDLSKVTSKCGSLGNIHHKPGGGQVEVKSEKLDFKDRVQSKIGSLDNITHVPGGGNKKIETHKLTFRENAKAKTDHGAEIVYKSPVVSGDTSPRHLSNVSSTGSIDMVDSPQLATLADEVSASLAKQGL

Regarding 14-3-3ζ (from UniProt P63104), the Kd in data set [1] is 312 nM; in data set [2], 900 nM; in data set [3] it was 22 nM.

Broadly, the Kd is the concentration at which binding is half-saturated.
